Results reported in patent US5817490A, “Enzymatic process for the manufacture of ascorbic acid 2-keto-L-gulonic acid and esters of 2-keto-L-gulonic acid” (Eastman Chemical Company, priority 1997, dated 1998).
Like-named read-outs stand apart in the source and are kept apart here.

Experiments:
[1] = assay type: physicochemical
Method: HPLC sample standards were prepared by dissolving KLG, MeKLG, ascorbic acid (ASA), and butyl-KLG to the appropriate concentration in water. Samples of these standards were placed in filled and sealed vials, stored at room temperature, and analyzed periodically. The HPLC was calibrated on the area response for standards that were injected onto the HPLC as soon as possible after the preparation of the standards.

[2] = enzyme screen for hydrolysis/methanolysis of butyl-KLG (HPLC of products and remaining substrate); assay type: biochemical; set-up: KLG formed / MeKLG formed / ASA formed / BuKLG (remaining substrate): unit: ppm
Method: Initial enzyme screens were carried out as follows. Enzyme (typically 10 mg), aqueous buffer (typically 860 microliters (ul) or 550 ul), aqueous 0.2M CaCl2 (10 ul), methanol (typically 90 ul or 400 ul), and an aqueous solution of substrate (typically 90 ul of butyl-KLG at a typical concentration of 110,000 ppm) were added to a 2 ml polypropylene centrifuge tube. The resulting solution was vortexed briefly and placed on a shaker bath at 300 rpm at 38° C. (typically for 18 hours or more). After incubation, samples were centrifuged at 14,000 G's (14,000 times gravity) for 20 minutes to remove enzyme, sampled (300 ul), and diluted to one milliliter with distilled water. If not analyzed by HPLC within the day, samples were frozen prior to analysis.
The data were reported in terms of parts per million of KLG, MeKLG, ascorbic acid (ASA) and butyl-KLG. […] Samples labeled as "no enzyme" were controls within a given run. The controls contained substrate but no enzyme and thus represented experimental and HPLC background data.

[3] = Table 4: 38° C., 47.5 Hours, 38% Methanol-Water, 0.1M MES Buffer
[4] = Table 7: 38° C., 19 Hours, 8.6% Methanol-Water, 0.1M MES
[5] = Table 8: 38° C., 21 Hours, 8.6% Methanol-Water, 0.2 M MES
[6] = Table 3: 38° C., 16 Hours, 38% Methanol-Water, 0.1M MES Buffer
[7] = Table 5: 38° C., 19 Hours, 38% Methanol-Water, 0.1 M MES Buffer
[8] = Table 6: 38°, 19 Hours, 8.6% Methanol-Water, 0.1 M MES

Row | Molecule | ASA formed [2, 3] [ppm] | KLG formed [2, 3] [ppm] | MeKLG formed [2, 3] [ppm] | ASA formed [2, 4] | KLG formed [2, 4] | MeKLG formed [2, 4] | ASA formed [2, 5] [ppm] | KLG formed [2, 5] [ppm] | MeKLG formed [2, 5] [ppm] | ASA formed [2, 6] [ppm] | KLG formed [2, 6] [ppm] | MeKLG formed [2, 6] [ppm] | BuKLG (remaining substrate) [2, 3] [ppm] | BuKLG (remaining substrate) [2, 4] | BuKLG (remaining substrate) [2, 5] [ppm] | BuKLG (remaining substrate) [2, 6] [ppm] | other results
1 | O=C1O[C@H]([C@@H](O)CO)C(O)=C1O [ASA, ascorbic acid] |  |  |  |  |  |  |  |  |  |  |  |  |  |  |  |  | Amount Found ([1]; 50 ppm standard, 0 minutes): 53.4 ppm; Amount Found ([1]; 50 ppm standard, 400 minutes): 28.3 ppm; Amount Found ([1]; 50 ppm standard, 715 minutes): 0 ppm; Amount Found ([1]; 100 ppm standard, 0 minutes): 107 ppm; Amount Found ([1]; 100 ppm standard, 400 minutes): 96.6 ppm; Amount Found ([1]; 100 ppm standard, 715 minutes): 57.2 ppm; Amount Found ([1]; 500 ppm standard, 0 minutes): 534 ppm; Amount Found ([1]; 500 ppm standard, 400 minutes): 487 ppm; Amount Found ([1]; 500 ppm standard, 715 minutes): 473 ppm
2 | Mucor meihei Lipase: Mucor meihei Lipase (protein, UniProt P19515 95-363, looked up) Lipase: SIDGGIRAATSQEINELTYYTTLSANSYCRTVIPGATWDCIHCDATEDLKIIKTWSTLIYDTNAMVARGDSEKTIYIVFRGSSSIRNWIADLTFVPVSYPPVSGTKVHKGFLDSYGEVQNELVATVLDQFKQYPSYKVAVTGHSLGGATALLCALDLYQREEGLSSSNLFLYTQGQPRVGDPAFANYVVSTGIPYRRTVNERDIVPHLPPAAFGFLHAGEEYWITDNSPETVQVCTSDLETSDCSNSIVPFTSVLDHLSYFGINTGLCT | 108 | 54 | 189 | 156 | 229 | 278 | 54 | 243 | 283 |  |  |  | 7041 | 8620 | 7067 |  | 
3 | Porcine Pancreatic Lipase: Porcine Pancreatic Lipase (protein, UniProt P00591 1-450, looked up) Pancreatic triacylglycerol …: SEVCFPRLGCFSDDAPWAGIVQRPLKILPWSPKDVDTRFLLYTNQNQNNYQELVADPSTITNSNFRMDRKTRFIIHGFIDKGEEDWLSNICKNLFKVESVNCICVDWKGGSRTGYTQASQNIRIVGAEVAYFVEVLKSSLGYSPSNVHVIGHSLGSHAAGEAGRRTNGTIERITGLDPAEPCFQGTPELVRLDPSDAKFVDVIHTDAAPIIPNLGFGMSQTVGHLDFFPNGGKQMPGCQKNILSQIVDIDGIWEGTRDFVACNHLRSYKYYADSILNPDGFAGFPCDSYNVFTANKCFPCPSEGCPQMGHYADRFPGKTNGVSQVFYLNTGDASNFARWRYKVSVTLSGKKVTGHILVSLFGNEGNSRQYEIYKGTLQPDNTHSDEFDSDVEVGDLQKVKFIWYNNNVINPTLPRVGASKITVERNDGKVYDFCSQETVREEVLLTLNPC | 222 | 229 | 613 | 314 | 333 | 291 | 78 | 303 | 320 | 49 | 81 | 316 | 10899 | 7888 | 6860 | 10709 | 
4 | L-7 (Porcine pancreas): Lipase (Porcine pancreas) (protein, UniProt P00591 1-450, looked up) Pancreatic triacylglycerol …: SEVCFPRLGCFSDDAPWAGIVQRPLKILPWSPKDVDTRFLLYTNQNQNNYQELVADPSTITNSNFRMDRKTRFIIHGFIDKGEEDWLSNICKNLFKVESVNCICVDWKGGSRTGYTQASQNIRIVGAEVAYFVEVLKSSLGYSPSNVHVIGHSLGSHAAGEAGRRTNGTIERITGLDPAEPCFQGTPELVRLDPSDAKFVDVIHTDAAPIIPNLGFGMSQTVGHLDFFPNGGKQMPGCQKNILSQIVDIDGIWEGTRDFVACNHLRSYKYYADSILNPDGFAGFPCDSYNVFTANKCFPCPSEGCPQMGHYADRFPGKTNGVSQVFYLNTGDASNFARWRYKVSVTLSGKKVTGHILVSLFGNEGNSRQYEIYKGTLQPDNTHSDEFDSDVEVGDLQKVKFIWYNNNVINPTLPRVGASKITVERNDGKVYDFCSQETVREEVLLTLNPC | 120 | 94 | 884 | 106 | 1007 | 575 |  |  |  |  |  |  | 5488 | 5392 |  |  | 
5 | Hog Pancreatic Lipase: Hog Pancreatic Lipase, Fluka (protein, UniProt P00591 1-450, looked up) Pancreatic triacylglycerol …: SEVCFPRLGCFSDDAPWAGIVQRPLKILPWSPKDVDTRFLLYTNQNQNNYQELVADPSTITNSNFRMDRKTRFIIHGFIDKGEEDWLSNICKNLFKVESVNCICVDWKGGSRTGYTQASQNIRIVGAEVAYFVEVLKSSLGYSPSNVHVIGHSLGSHAAGEAGRRTNGTIERITGLDPAEPCFQGTPELVRLDPSDAKFVDVIHTDAAPIIPNLGFGMSQTVGHLDFFPNGGKQMPGCQKNILSQIVDIDGIWEGTRDFVACNHLRSYKYYADSILNPDGFAGFPCDSYNVFTANKCFPCPSEGCPQMGHYADRFPGKTNGVSQVFYLNTGDASNFARWRYKVSVTLSGKKVTGHILVSLFGNEGNSRQYEIYKGTLQPDNTHSDEFDSDVEVGDLQKVKFIWYNNNVINPTLPRVGASKITVERNDGKVYDFCSQETVREEVLLTLNPC |  |  |  |  |  |  |  |  |  |  |  |  |  |  |  |  | ASA formed [2, 7]: 130 ppm; BuKLG (remaining substrate) [2, 7]: 11114 ppm; KLG formed [2, 7]: 58 ppm; MeKLG formed [2, 7]: 529 ppm; ASA formed [2, 8]: 158 ppm; BuKLG (remaining substrate) [2, 8]: 5284 ppm; KLG formed [2, 8]: 890 ppm; MeKLG formed [2, 8]: 791 ppm
6 | Humicola lanuginosa Lipase: Humicola lanuginosa Lipase (protein, UniProt O59952 23-291, looked up) Lipase: EVSQDLFNQFNLFAQYSAAAYCGKNNDAPAGTNITCTGNACPEVEKADATFLYSFEDSGVGDVTGFLALDNTNKLIVLSFRGSRSIENWIGNLNFDLKEINDICSGCRGHDGFTSSWRSVADTLRQKVEDAVREHPDYRVVFTGHSLGGALATVAGADLRGNGYDIDVFSYGAPRVGNRAFAEFLTVQTGGTLYRITHTNDIVPRLPPREFGYSHSSPEYWIKSGTLVPVTRNDIVKIEGIDATGGNNQPNIPDIPAHLWYFGLIGTCL | 42 | 129 | 241 |  |  |  | 10 | 176 | 129 | 6 | 63 | 90 | 8017 |  | 7215 | 10191 | 

More lines, main results first:

Row | ASA formed [2, 3] [ppm] | KLG formed [2, 3] [ppm] | MeKLG formed [2, 3] [ppm] | ASA formed [2, 4] | KLG formed [2, 4] | MeKLG formed [2, 4] | ASA formed [2, 5] [ppm] | KLG formed [2, 5] [ppm] | MeKLG formed [2, 5] [ppm] | ASA formed [2, 6] [ppm] | KLG formed [2, 6] [ppm] | MeKLG formed [2, 6] [ppm] | Molecule | BuKLG (remaining substrate) [2, 3] [ppm] | BuKLG (remaining substrate) [2, 4] | BuKLG (remaining substrate) [2, 5] [ppm] | BuKLG (remaining substrate) [2, 6] [ppm] | other results
7 |  |  |  |  |  |  | 0 | 178 | 0 | 1 | 51 | 99 | Rhizoipus Delmar Lipase: Rhizoipus Delmar Lipase (protein, UniProt P61872 96-392, looked up) Lipase: DDNLVGGMTLDLPSDAPPISLSSSTNSASDGGKVVAATTAQIQEFTKYAGIAATAYCRSVVPGNKWDCVQCQKWVPDGKIITTFTSLLSDTNGYVLRSDKQKTIYLVFRGTNSFRSAITDIVFNFSDYKPVKGAKVHAGFLSSYEQVVNDYFPVVQEQLTAHPTYKVIVTGHSLGGAQALLAGMDLYQREPRLSPKNLSIFTVGGPRVGNPTFAYYVESTGIPFQRTVHKRDIVPHVPPQSFGFLHPGVESWIKSGTSNVQICTSEIETKDCSNSIVPFTSILDHLSYFDINEGSCL |  |  | 7097 | 7392 | 
8 |  |  |  |  |  |  | 61 | 178 | 181 | 17 | 80 | 252 | Rhizopus Niveus Lipase: Rhizopus Niveus Lipase (protein, UniProt P61871 96-392, looked up) Lipase: DDNLVGGMTLDLPSDAPPISLSSSTNSASDGGKVVAATTAQIQEFTKYAGIAATAYCRSVVPGNKWDCVQCQKWVPDGKIITTFTSLLSDTNGYVLRSDKQKTIYLVFRGTNSFRSAITDIVFNFSDYKPVKGAKVHAGFLSSYEQVVNDYFPVVQEQLTAHPTYKVIVTGHSLGGAQALLAGMDLYQREPRLSPKNLSIFTVGGPRVGNPTFAYYVESTGIPFQRTVHKRDIVPHVPPQSFGFLHPGVESWIKSGTSNVQICTSEIETKDCSNSIVPFTSILDHLSYFDINEGSCL |  |  | 7102 | 10453 | 
9 | 0 | 3072 | 47 | 0 | 4463 | 93 |  |  |  |  |  |  | Subtilisin Carlsberg: Subtilisin Carlsberg (a protease) (protein, UniProt P00780 106-379, looked up) Subtilisin Carlsberg: AQTVPYGIPLIKADKVQAQGFKGANVKVAVLDTGIQASHPDLNVVGGASFVAGEAYNTDGNGHGTHVAGTVAALDNTTGVLGVAPSVSLYAVKVLNSSGSGSYSGIVSGIEWATTNGMDVINMSLGGASGSTAMKQAVDNAYAKGVVVVAAAGNSGSSGNTNTIGYPAKYDSVIAVGAVDSNSNRASFSSVGAELEVMAPGAGVYSTYPTNTYATLNGTSMASPHVAGAAALILSKHPNLSASQVRNRLSSTATYLGSSFYYGKGLINVEAAAQ | 0 | 4428 |  |  | levels of activity / conversion of butyl-KLG ([2]; Example 4: 38% methanol-water, MES, pH 5 to 5.8): particularly high levels of activity
